Reference: PMC12687421, “Characterisation of an allosteric site in PLCγ enzymes and implications for development of their specific inhibitors” (Biochemical Journal, 2025)

Test: Specific activity of PLC variants in assay 2 (A2)
Type: biochemical
Conditions: aldol substrate in solution
Method: The effect of nucleotide inhibition on PLC activity was measured using either a membrane-based assay with the fluorescent substrate (XY-69) incorporated into liposomes or using a small soluble substrate, Aldol 518 myo-inositol-1-phosphate (Aldol). Both methods utilised the same PLC assay buffer [20 mM Hepes-KOH, 70 mM KCl, 3 mM EGTA, 2.97 mM CaCl2, 2 mM TCEP and fatty acid-free bovine serum albumin (FAF-BSA; 50 μg/ml) (pH 7.5)]. Both assays were performed in low volume black 384-well plates (Greiner Bio-One), were composed of a final assay volume of 20 μl and were monitored in a Clariostar plate reader (BMG Labtech). […] The excitation and emission wavelengths were 588–15 and 642–20, respectively.
A CLARIOstar plate reader (BMG Labtech) was used to measure the production of the fluorescent product. The excitation and emission wavelengths were 485–15 and 520–20, respectively. Each experiment was performed in at least triplicate; in many cases, nine-fold replicates were generated. The enzyme progress curves were plotted for each concentration of nucleotide using Graphpad Prism software. The initial linear rate of product generation was calculated and converted to a % inhibition when compared with the rate of PLC activity in the absence of nucleotide. […]

B1: PLCγ1^wt: full-length wild-type human PLCγ1 enzyme (protein, UniProt P19174 1-1290, looked up)
chain: MAGAASPCANGCGPGAPSDAEVLHLCRSLEVGTVMTLFYSKKSQRPERKTFQVKLETRQITWSRGADKIEGAIDIREIKEIRPGKTSRDFDRYQEDPAFRPDQSHCFVILYGMEFRLKTLSLQATSEDEVNMWIKGLTWLMEDTLQAPTPLQIERWLRKQFYSVDRNREDRISAKDLKNMLSQVNYRVPNMRFLRERLTDLEQRSGDITYGQFAQLYRSLMYSAQKTMDLPFLEASTLRAGERPELCRVSLPEFQQFLLDYQGELWAVDRLQVQEFMLSFLRDPLREIEEPYFFLDEFVTFLFSKENSVWNSQLDAVCPDTMNNPLSHYWISSSHNTYLTGDQFSSESSLEAYARCLRMGCRCIELDCWDGPDGMPVIYHGHTLTTKIKFSDVLHTIKEHAFVASEYPVILSIEDHCSIAQQRNMAQYFKKVLGDTLLTKPVEISADGLPSPNQLKRKILIKHKKLAEGSAYEEVPTSMMYSENDISNSIKNGILYLEDPVNHEWYPHYFVLTSSKIYYSEETSSDQGNEDEEEPKEVSSSTELHSNEKWFHGKLGAGRDGRHIAERLLTEYCIETGAPDGSFLVRESETFVGDYTLSFWRNGKVQHCRIHSRQDAGTPKFFLTDNLVFDSLYDLITHYQQVPLRCNEFEMRLSEPVPQTNAHESKEWYHASLTRAQAEHMLMRVPRDGAFLVRKRNEPNSYAISFRAEGKIKHCRVQQEGQTVMLGNSEFDSLVDLISYYEKHPLYRKMKLRYPINEEALEKIGTAEPDYGALYEGRNPGFYVEANPMPTFKCAVKALFDYKAQREDELTFIKSAIIQNVEKQEGGWWRGDYGGKKQLWFPSNYVEEMVNPVALEPEREHLDENSPLGDLLRGVLDVPACQIAIRPEGKNNRLFVFSISMASVAHWSLDVAADSQEELQDWVKKIREVAQTADARLTEGKIMERRKKIALELSELVVYCRPVPFDEEKIGTERACYRDMSSFPETKAEKYVNKAKGKKFLQYNRLQLSRIYPKGQRLDSSNYDPLPMWICGSQLVALNFQTPDKPMQMNQALFMTGRHCGYVLQPSTMRDEAFDPFDKSSLRGLEPCAISIEVLGARHLPKNGRGIVCPFVEIEVAGAEYDSTKQKTEFVVDNGLNPVWPAKPFHFQISNPEFAFLRFVVYEEDMFSDQNFLAQATFPVKGLKTGYRAVPLKNNYSEDLELASLLIKIDIFPAKENGDLSPFSGTSLRERGSDASGQLFHGRAREGSFESRYQQPFEDFRISQEHLADHFDSRERRAPRRTRVNGDNRL
modifications: full-length
notes: full-length wild-type human PLCγ1 enzyme
With B1 the “Specific Activity A2” value was 18606 ± 685 RFU/min/mg.

B2: K491D: PLCγ1 variant with K491D mutation in the nucleotide binding site (protein, UniProt P19174 2-1290, looked up, variant K491D)
1-phosphatidylinositol …: AGAASPCANGCGPGAPSDAEVLHLCRSLEVGTVMTLFYSKKSQRPERKTFQVKLETRQITWSRGADKIEGAIDIREIKEIRPGKTSRDFDRYQEDPAFRPDQSHCFVILYGMEFRLKTLSLQATSEDEVNMWIKGLTWLMEDTLQAPTPLQIERWLRKQFYSVDRNREDRISAKDLKNMLSQVNYRVPNMRFLRERLTDLEQRSGDITYGQFAQLYRSLMYSAQKTMDLPFLEASTLRAGERPELCRVSLPEFQQFLLDYQGELWAVDRLQVQEFMLSFLRDPLREIEEPYFFLDEFVTFLFSKENSVWNSQLDAVCPDTMNNPLSHYWISSSHNTYLTGDQFSSESSLEAYARCLRMGCRCIELDCWDGPDGMPVIYHGHTLTTKIKFSDVLHTIKEHAFVASEYPVILSIEDHCSIAQQRNMAQYFKKVLGDTLLTKPVEISADGLPSPNQLKRKILIKHKKLAEGSAYEEVPTSMMYSENDISNSIDNGILYLEDPVNHEWYPHYFVLTSSKIYYSEETSSDQGNEDEEEPKEVSSSTELHSNEKWFHGKLGAGRDGRHIAERLLTEYCIETGAPDGSFLVRESETFVGDYTLSFWRNGKVQHCRIHSRQDAGTPKFFLTDNLVFDSLYDLITHYQQVPLRCNEFEMRLSEPVPQTNAHESKEWYHASLTRAQAEHMLMRVPRDGAFLVRKRNEPNSYAISFRAEGKIKHCRVQQEGQTVMLGNSEFDSLVDLISYYEKHPLYRKMKLRYPINEEALEKIGTAEPDYGALYEGRNPGFYVEANPMPTFKCAVKALFDYKAQREDELTFIKSAIIQNVEKQEGGWWRGDYGGKKQLWFPSNYVEEMVNPVALEPEREHLDENSPLGDLLRGVLDVPACQIAIRPEGKNNRLFVFSISMASVAHWSLDVAADSQEELQDWVKKIREVAQTADARLTEGKIMERRKKIALELSELVVYCRPVPFDEEKIGTERACYRDMSSFPETKAEKYVNKAKGKKFLQYNRLQLSRIYPKGQRLDSSNYDPLPMWICGSQLVALNFQTPDKPMQMNQALFMTGRHCGYVLQPSTMRDEAFDPFDKSSLRGLEPCAISIEVLGARHLPKNGRGIVCPFVEIEVAGAEYDSTKQKTEFVVDNGLNPVWPAKPFHFQISNPEFAFLRFVVYEEDMFSDQNFLAQATFPVKGLKTGYRAVPLKNNYSEDLELASLLIKIDIFPAKENGDLSPFSGTSLRERGSDASGQLFHGRAREGSFESRYQQPFEDFRISQEHLADHFDSRERRAPRRTRVNGDNRL
In the case of B2, the “Specific Activity A2” value is reported as 18974 ± 796 RFU/min/mg.
